Results published in the supplement of paper PMC10567573.

B1: MNAT1 (parent)
chain: SLREYNDFLEEVEEIVFNLTNNVD

Variants of: B1
Test: protein stability index of a GFP-peptide fusion (GPS, HEK-293T) (PSI 1-6); higher = more stable
Details: c terminus: a fixed tail appended
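Also: lentivirally expressed fusions sorted by FACS into six bins by GFP to DsRed ratio, PSI derived from sequencing read proportions per bin multiplied by bin number.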

Variant | protein stability index
SLHEYNDFLEEVEEIVFNLTNNVD [R3H] | 2.71
SLLEYNDFLEEVEEIVFNLTNNVD [R3L] | 1.64
SLPEYNDFLEEVEEIVFNLTNNVD [R3P] | 3.52
SLAEYNDFLEEVEEIVFNLTNNVD [R3A] | 2.58
SLGEYNDFLEEVEEIVFNLTNNVD [R3G] | 2.78
SLWEYNDFLEEVEEIVFNLTNNVD [R3W] | 1.62
SLNEYNDFLEEVEEIVFNLTNNVD [R3N] | 2.18
SLYEYNDFLEEVEEIVFNLTNNVD [R3Y] | 1.86
SLEEYNDFLEEVEEIVFNLTNNVD [R3E] | 2.12
SLMEYNDFLEEVEEIVFNLTNNVD [R3M] | 1.91
SLTEYNDFLEEVEEIVFNLTNNVD [R3T] | 1.83
SLDEYNDFLEEVEEIVFNLTNNVD [R3D] | 2.32
SLVEYNDFLEEVEEIVFNLTNNVD [R3V] | 1.61
SLKEYNDFLEEVEEIVFNLTNNVD [R3K] | 2.06
SLCEYNDFLEEVEEIVFNLTNNVD [R3C] | 1.77
SLFEYNDFLEEVEEIVFNLTNNVD [R3F] | 2.6
SLIEYNDFLEEVEEIVFNLTNNVD [R3I] | 1.69
SLSEYNDFLEEVEEIVFNLTNNVD [R3S] | 2.55
SLQEYNDFLEEVEEIVFNLTNNVD [R3Q] | 2.94
SLREYNDFHEEVEEIVFNLTNNVD [L9H] | 4.22
SLREYNDFEEEVEEIVFNLTNNVD [L9E] | 4.32
SLREYNDFREEVEEIVFNLTNNVD [L9R] | 3.83
SLREYNDFAEEVEEIVFNLTNNVD [L9A] | 4.09
SLREYNDFCEEVEEIVFNLTNNVD [L9C] | 3.36

Variant | protein stability index
SLREYNDFGEEVEEIVFNLTNNVD [L9G] | 3.98
SLREYNDFVEEVEEIVFNLTNNVD [L9V] | 3.77
SLREYNDFPEEVEEIVFNLTNNVD [L9P] | 4.61
SLREYNDFKEEVEEIVFNLTNNVD [L9K] | 3.98
SLREYNDFIEEVEEIVFNLTNNVD [L9I] | 2.26
SLREYNDFNEEVEEIVFNLTNNVD [L9N] | 4.6
SLREYNDFTEEVEEIVFNLTNNVD [L9T] | 4.07
SLREYNDFWEEVEEIVFNLTNNVD [L9W] | 1.79
SLREYNDFFEEVEEIVFNLTNNVD [L9F] | 3.05
SLREYNDFMEEVEEIVFNLTNNVD [L9M] | 2.76
SLREYNDFQEEVEEIVFNLTNNVD [L9Q] | 4.07
SLREYNDFDEEVEEIVFNLTNNVD [L9D] | 4.5
SLREYNDFSEEVEEIVFNLTNNVD [L9S] | 4.82
SLREYNDFYEEVEEIVFNLTNNVD [L9Y] | 3.59
SLREYNDILEEVEEIVFNLTNNVD [F8I] | 2.57
SLREYNDWLEEVEEIVFNLTNNVD [F8W] | 2.53
SLREYNDNLEEVEEIVFNLTNNVD [F8N] | 4.84
SLREYNDELEEVEEIVFNLTNNVD [F8E] | 5.2
SLREYNDQLEEVEEIVFNLTNNVD [F8Q] | 4.55
SLREYNDTLEEVEEIVFNLTNNVD [F8T] | 4.55
SLREYNDSLEEVEEIVFNLTNNVD [F8S] | 4.91
SLREYNDMLEEVEEIVFNLTNNVD [F8M] | 3.51
SLREYNDVLEEVEEIVFNLTNNVD [F8V] | 3.63
SLREYNDCLEEVEEIVFNLTNNVD [F8C] | 3.8

Variant | protein stability index
SLREYNDYLEEVEEIVFNLTNNVD [F8Y] | 3.6
SLREYNDKLEEVEEIVFNLTNNVD [F8K] | 4.28
SLREYNDALEEVEEIVFNLTNNVD [F8A] | 3.06
SLREYNDDLEEVEEIVFNLTNNVD [F8D] | 4.87
SLREYNDLLEEVEEIVFNLTNNVD [F8L] | 3.43
SLREYNDRLEEVEEIVFNLTNNVD [F8R] | 4.61
SLREYNDPLEEVEEIVFNLTNNVD [F8P] | 4.78
SLREYNDGLEEVEEIVFNLTNNVD [F8G] | 4.11
SLREYNDHLEEVEEIVFNLTNNVD [F8H] | 4.72
SLREYNDFLWEVEEIVFNLTNNVD [E10W] | 1.95
SLREYNDFLTEVEEIVFNLTNNVD [E10T] | 2.01
SLREYNDFLIEVEEIVFNLTNNVD [E10I] | 1.3
SLREYNDFLQEVEEIVFNLTNNVD [E10Q] | 2.62
SLREYNDFLPEVEEIVFNLTNNVD [E10P] | 3.54
SLREYNDFLKEVEEIVFNLTNNVD [E10K] | 1.91
SLREYNDFLVEVEEIVFNLTNNVD [E10V] | 2.25
SLREYNDFLSEVEEIVFNLTNNVD [E10S] | 2.41
SLREYNDFLFEVEEIVFNLTNNVD [E10F] | 2.97
SLREYNDFLAEVEEIVFNLTNNVD [E10A] | 1.58
SLREYNDFLCEVEEIVFNLTNNVD [E10C] | 2.74
SLREYNDFLLEVEEIVFNLTNNVD [E10L] | 1.52
SLREYNDFLNEVEEIVFNLTNNVD [E10N] | 1.55
SLREYNDFLDEVEEIVFNLTNNVD [E10D] | 1.95
SLREYNDFLMEVEEIVFNLTNNVD [E10M] | 1.4

Variant | protein stability index
SLREYNDFLYEVEEIVFNLTNNVD [E10Y] | 2.15
SLREYNDFLGEVEEIVFNLTNNVD [E10G] | 2.72
SLREYNDFLREVEEIVFNLTNNVD [E10R] | 1.86
SLREYNDFLEEEEEIVFNLTNNVD [V12E] | 4.49
SLREYNDFLEECEEIVFNLTNNVD [V12C] | 2.9
SLREYNDFLEEAEEIVFNLTNNVD [V12A] | 3.22
SLREYNDFLEEDEEIVFNLTNNVD [V12D] | 4.97
SLREYNDFLEEFEEIVFNLTNNVD [V12F] | 1.86
SQREYNDFLEEVEEIVFNLTNNVD [L2Q] | 2.72
SFREYNDFLEEVEEIVFNLTNNVD [L2F] | 1.96
SGREYNDFLEEVEEIVFNLTNNVD [L2G] | 3.08
SDREYNDFLEEVEEIVFNLTNNVD [L2D] | 3.33
SSREYNDFLEEVEEIVFNLTNNVD [L2S] | 2.71
SIREYNDFLEEVEEIVFNLTNNVD [L2I] | 2.31
STREYNDFLEEVEEIVFNLTNNVD [L2T] | 3.01
SKREYNDFLEEVEEIVFNLTNNVD [L2K] | 2.6
SEREYNDFLEEVEEIVFNLTNNVD [L2E] | 3.35
SVREYNDFLEEVEEIVFNLTNNVD [L2V] | 2.33
SNREYNDFLEEVEEIVFNLTNNVD [L2N] | 2.86
SHREYNDFLEEVEEIVFNLTNNVD [L2H] | 3.09
SMREYNDFLEEVEEIVFNLTNNVD [L2M] | 2.13
SWREYNDFLEEVEEIVFNLTNNVD [L2W] | 1.79
